Test results published in patent publication US20250051802.

System: SluCas9
Experiment: cell_activity
Details: amplicon sequencing, HEK 293T

How did the activity (PAM NNGG (CGGGGT)) turn out when “CCAUUCCCUCUUUAGCCAGAG / CCATTCCCTCTTTAGCCAGAGCGGGGT / ACCCCGCTCTGGCTAAAGAGGGAATGG [pBLR194 guide spacer ; pBLR194 target with PAM]” was run?
The activity was 65.7%.

With “GGCCGGCGGCGGACAGUGGAC / GGCCGGCGGCGGACAGTGGACGCGGCGGC / GCCGCCGCGTCCACTGTCCGCCGCCGGCC [pBLR179 guide spacer ; pBLR179 target with PAM]” as the sequence, how does the activity (PAM NNGG (GCGGCGGC)) read?
The activity was 72.8%.

How did the activity (PAM NNGG (GTGGAT)) turn out when “UGCCCUGUGGGGCAAGGUGAA / TGCCCTGTGGGGCAAGGTGAAGTGGAT / ATCCACTTCACCTTGCCCCACAGGGCA [pBLR197 guide spacer ; pBLR197 target with PAM]” was run?
Its activity is 1.9%.
